Assay [1] has as its target T1, Biotinylated recombinant human IL-13Rα2 ectodomain with C-terminal biotin acceptor peptide and hexahistidine … (human, UniProt Q14627 27-343, biotin on the biotin acceptor peptide (coexpressed with BirA ligase)).
T1 construct: extracellular domain; also called recombinant IL13Rα2; biotinylated IL13Rα2
T1 sequence: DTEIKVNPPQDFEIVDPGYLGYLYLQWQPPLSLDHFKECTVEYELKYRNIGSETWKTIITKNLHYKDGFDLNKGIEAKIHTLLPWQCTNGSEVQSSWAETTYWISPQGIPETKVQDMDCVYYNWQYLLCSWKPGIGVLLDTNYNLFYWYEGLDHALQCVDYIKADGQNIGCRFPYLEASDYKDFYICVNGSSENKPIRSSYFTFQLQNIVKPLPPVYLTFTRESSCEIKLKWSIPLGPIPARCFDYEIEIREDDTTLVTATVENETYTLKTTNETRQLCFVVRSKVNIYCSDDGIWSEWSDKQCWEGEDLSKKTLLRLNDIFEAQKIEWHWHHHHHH
As to the kind of experiment: SPR (Biacore T100), biotinylated IL-13Rα2 captured on SA chip, IL-13 C4 flowed, 1:1 Langmuir fit. An excerpt:
(§1) FIG. 2A-2F: IL-13Rα1 and IL-13Rα2 binding affinities of the IL-13 variant. (A-C) Surface plasmon resonance measurements of IL-13, IL-13 D7 and IL-13 C4 for IL-13Rα1. IL-13Rα1 was immobilized on the surface of the chip and the indicated doses of IL-13 or the two IL-13 mutants were flowed. (D-F) Surface plasmon resonance measurements of IL-13,IL-13 D7 and IL-13 C4 for IL-13Rα2. IL-13Rα2 was immobilized on the surface of the chip and the indicated doses of IL-13 or the two IL-13 mutants were flowed.
(§2) SPR experiments were conducted on a Biacore T100 instrument using a Biacore SA sensor chip (GE Healthcare). Biotinylated IL-13Rα1/IL-13Rα2 was captured at a low density (50-100 response units (RU)) and kinetics measurements were conducted at 30 μL/min. An unrelated biotinylated protein was immobilized as a reference surface for the SA sensor chip with matching RU to the experimental surface. All measurements were made using 3-fold serial dilutions of IL-13 agonists in the running buffer (1×HBS-P, 0.1% BSA). The IL-13Rα1/IL-13Rα2 bound to the chip surface was regenerated with 7 mM glycine (pH 3.0) and 250 mM NaCl. Kinetic parameters were determined using 120 s to 190 s of IL-13 agonist association time and 20 s to 1200 s dissociation time. All data fitting was performed using the Biacore T100 evaluation software version 2.0 with a 1:1 Langmuir binding model.

The target in assay [2] is T1, Biotinylated recombinant human IL-13Rα2 …. As to the kind of experiment: SPR, Biacore T100, biotinylated receptor captured on SA chip, cytokine flowed, 1:1 Langmuir fit. The method, then: as §2
On the technique in general: In SPR one partner is held on a chip, and binding of the other changes the refractive index at the surface.

The target of assay [3] is T2, Biotinylated recombinant human IL-13Rα1 ectodomain with C-terminal biotin acceptor peptide and hexahistidine … (human, UniProt P78552 22-343, biotin on the biotin acceptor peptide (coexpressed with BirA ligase)).
T2 construct: extracellular domain; also called recombinant IL13Rα1; biotinylated IL13Rα1
T2 sequence: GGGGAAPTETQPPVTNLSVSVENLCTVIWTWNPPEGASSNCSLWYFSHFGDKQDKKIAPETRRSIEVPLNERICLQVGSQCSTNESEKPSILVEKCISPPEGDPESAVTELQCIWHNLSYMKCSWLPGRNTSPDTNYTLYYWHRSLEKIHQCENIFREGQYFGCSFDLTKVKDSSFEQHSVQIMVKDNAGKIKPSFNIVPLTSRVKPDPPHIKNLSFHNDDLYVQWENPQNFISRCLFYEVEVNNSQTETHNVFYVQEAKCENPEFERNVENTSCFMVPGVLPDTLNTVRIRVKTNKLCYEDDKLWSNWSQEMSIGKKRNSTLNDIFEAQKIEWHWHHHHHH
Nature of the assay: SPR (Biacore T100), biotinylated IL-13Rα1 captured on SA chip, IL-13 C4 flowed; Ka and Kd cells are empty. The method, then:
as §2

Assay [4] deals with T2, Biotinylated recombinant human IL-13Rα1 …. Nature of the assay: SPR; ratio column of the drawn table, IL13Rα1.
Description: as §1, §2

For assay [5], the target named is T1, Biotinylated recombinant human IL-13Rα2 …. Nature of the assay: SPR; ratio of the affinities for IL13Rα2 and IL13Rα1 (reference: IL13Rα1). As to the method:
as §2

Assay [6] addresses T2, Biotinylated recombinant human IL-13Rα1 …. Nature of the assay: SPR, IL-13Rα1 immobilized on the chip, IL-13 C4 flowed; panel titled IL-13C4/IL-13Rα1; Kon and Koff cells empty.
Description: as §1, §2

In assay [7] the target is T1, Biotinylated recombinant human IL-13Rα2 …. Nature of the assay: SPR, IL-13Rα2 immobilized on the chip, IL-13 C4 flowed; panel titled IL-13C4/IL-13Rα2.
Description: as §1, §2

Assay [8] shares this target. Nature of the assay: SPR, IL-13Rα2 immobilized on the chip, IL-13 D7 flowed; panel titled IL-13D7/IL-13Rα2.
Description: as §1, §2

The target of assay [9] is T2, Biotinylated recombinant human IL-13Rα1 …. As to the kind of experiment: SPR, IL-13Rα1 immobilized on the chip, IL-13 D7 flowed; panel titled IL-13D7/IL-13Rα1; Kon and Koff cells empty.
Description: as §1, §2

The target of assay [10] is T1, Biotinylated recombinant human IL-13Rα2 …. As to the kind of experiment: SPR (Biacore T100), biotinylated IL-13Rα2 captured on SA chip, IL-13 D7 flowed, 1:1 Langmuir fit. As to the method:
as §2

The target in assay [11] is T2, Biotinylated recombinant human IL-13Rα1 …. Nature of the assay: SPR (Biacore T100), biotinylated IL-13Rα1 captured on SA chip, IL-13 D7 flowed; Ka and Kd cells are empty. As to the method: as §2

B1: IL13 C4 variant, soluble recombinant protein with C-terminal hexahistidine tag (ligand)
chain: GPVPPSTAVRELIEELVNITQNQKAPLCNGSMVWSINLTAGMYCAALESLINVSGCSAIEKTQRMLSGFCPHKVSAGQFSSLHVRDTRIEVAQFVKDLLNHLKELFTEGQFNHHHHHH
notes: also called C4 mutein
In general, koff refers to the rate constant with which the complex falls apart. By kon is commonly meant the second-order rate constant of association. Broadly, the Kd is the equilibrium constant for the complex coming apart. In the case of B1, the off-rate constant (koff) in [1] and in assay [7] was 0.000764 s⁻¹ each time. For the same molecule, the on-rate (kon) in assay [1] and in assay [7] was 1.94e+06 M⁻¹ s⁻¹ in each case. The Kd in [2] amounted to 0.393 nM; in [3] it was 36 µM; in assay [6], 36 µM. In [4], the KDwt/KD mut came to 8200. Further, in assay [5], the “fold stronger affinity for IL13Rα2 relative to IL13Rα1” value was found to be 92000 fold.

B2: IL13 D7 variant, soluble recombinant protein with C-terminal hexahistidine tag (ligand)
chain: GPVPPSTAARELIEELFNITQNQKAPLCNGSMVWSINLTAGMYCAALESLINVSGCSAIEKTKRMLSGFCPHKVSAGQFPSLHVKKTRIEVAQFVKDLLIHLRKLFKEGQFNHHHHHH
notes: also called D7 mutein
In the case of B2, the off-rate (koff) in assay [8] and in assay [10] was 5.37e-05 s⁻¹ each time. Besides, the kon in assay [8] and in assay [10] was 1.77e+07 M⁻¹ s⁻¹ throughout. Further, the Kd in assay [2] is 0.003 nM; in [9] it was 4.1 µM; in assay [11] it was 4.1 µM. Besides, the KDwt/KD mut in assay [4] was 940. In assay [5], the “fold stronger affinity for IL13Rα2 relative to IL13Rα1” value was found to be 1.4e+06 fold.

Source of the values: US20260000764A1 (CITY OF HOPE, published 2026).
